Source: patent publication US20200369775A1 (Dana-Farber, published 2020)

Experiments:
[1] = target: T1, CC chemokine receptor 4 (CCR4) (human, UniProt P51679 1-360); experiment: depletion of CCR4+ tumor-primed T cells with antibody-conjugated beads, checked by flow cytometry
T1 construct: whole, on cells; Endogenous CCR4 on human T cell subsets and Mac-1 cells
T1 sequence (looked up): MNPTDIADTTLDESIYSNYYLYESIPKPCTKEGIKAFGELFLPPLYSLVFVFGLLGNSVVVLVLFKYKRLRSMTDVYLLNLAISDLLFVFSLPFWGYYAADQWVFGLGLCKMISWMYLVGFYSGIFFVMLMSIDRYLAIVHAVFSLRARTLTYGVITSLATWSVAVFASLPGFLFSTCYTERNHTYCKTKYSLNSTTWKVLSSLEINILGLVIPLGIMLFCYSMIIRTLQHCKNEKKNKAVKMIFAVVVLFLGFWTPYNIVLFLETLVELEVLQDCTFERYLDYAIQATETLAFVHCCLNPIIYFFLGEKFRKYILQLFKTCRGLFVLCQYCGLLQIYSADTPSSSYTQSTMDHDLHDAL
Procedure: FIG. 4. The activity of tumor-primed T cells on IGROV-1 cells. (A) Tumor-primed T cells were stained by anti-CD3, CD4, CD8, CD25 and (B) CCR4 antibodies. CCR4-depleted tumor-primed T cells by mAb2-3-conjugated beads and T cell subsets in tumor-primed T cells were analyzed by flow cytometry. (C) Tumor-primed T cells and mAb2-3-depleted tumor-primed T cells were incubated with IGROV-1 cells for 24 and 48 hours and then the supernatant were harvested and detected the expression level of IFN-γ. […] (D) Intracellular IFN-γ staining of CD4 and CD8 T cells from coculture. Cells were harvested at 48 hours post-coculture; incubated for 6 h in the presence of brefeldin A; stained for CD3, CD4, and CD8; fixed in paraformaldehyde; permeabilized; and stained for intracellular IFN-γ. The cells were gated on lymphocytes by size and CD markers and analyzed by flow cytometry. (E) The cytotoxic activities of tumor-primed T cells and mAb2-3-depleted tumor primed T cells were further detected by LDH ELISA assay. All experiments represented triplicates in each time point with the means±S.D. and performed in two independent experiments. *, **, and *** represents student's t-test p value<0.05, 0.01, and 0.005, respectively.
To establish an OvCA xenograft bearing humanized mouse model, IGROV-1-specific T cells in vitro were created that could be tested subsequently for in vivo immunotherapy. […]

[2] = target: T2, IL-2 receptor β subunit chain (UniProt P14784 27-551); experiment: transiently transfected 293T cells, control experiment
T2 construct: whole, on cells; also called β chain; IL-2R β
T2 sequence (looked up): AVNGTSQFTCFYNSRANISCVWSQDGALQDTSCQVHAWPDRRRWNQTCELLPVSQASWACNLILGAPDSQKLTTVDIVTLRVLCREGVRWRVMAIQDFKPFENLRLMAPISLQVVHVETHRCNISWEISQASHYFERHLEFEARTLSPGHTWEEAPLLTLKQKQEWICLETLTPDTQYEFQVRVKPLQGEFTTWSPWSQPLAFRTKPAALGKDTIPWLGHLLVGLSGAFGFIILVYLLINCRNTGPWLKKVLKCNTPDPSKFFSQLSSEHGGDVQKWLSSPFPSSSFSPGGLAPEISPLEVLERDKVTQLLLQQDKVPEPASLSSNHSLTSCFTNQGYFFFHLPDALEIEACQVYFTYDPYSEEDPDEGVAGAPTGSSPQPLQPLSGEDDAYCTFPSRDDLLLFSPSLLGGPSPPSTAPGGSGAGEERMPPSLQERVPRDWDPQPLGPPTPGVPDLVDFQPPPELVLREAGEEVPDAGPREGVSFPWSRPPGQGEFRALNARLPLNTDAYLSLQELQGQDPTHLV

[3] = target: T3, IL-2 receptor γ subunit chain (UniProt P31785 23-369); experiment: as above
T3 construct: whole, on cells; also called γ chain; IL-2R γ
T3 sequence (looked up): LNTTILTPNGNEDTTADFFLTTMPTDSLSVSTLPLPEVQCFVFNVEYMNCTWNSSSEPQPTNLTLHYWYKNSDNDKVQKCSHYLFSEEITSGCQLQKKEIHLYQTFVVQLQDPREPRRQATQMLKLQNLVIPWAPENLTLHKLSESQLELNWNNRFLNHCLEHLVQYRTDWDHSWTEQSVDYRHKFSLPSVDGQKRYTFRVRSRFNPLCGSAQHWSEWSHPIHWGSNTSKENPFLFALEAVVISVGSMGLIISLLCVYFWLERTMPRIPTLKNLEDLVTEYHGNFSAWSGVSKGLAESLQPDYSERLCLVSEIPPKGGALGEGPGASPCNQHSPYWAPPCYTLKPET

[4] = target: T4, IL-2 receptor (IL-2R) complex of α, β and γ chains (UniProt P01589 22-272; P14784 27-551; P31785 23-369); experiment: as above
T4 construct: whole, on cells; co-expressed on transiently transfected 293T cells in the control experiment; also called IL-2Rs; the complex
T4 sequence (looked up) 1: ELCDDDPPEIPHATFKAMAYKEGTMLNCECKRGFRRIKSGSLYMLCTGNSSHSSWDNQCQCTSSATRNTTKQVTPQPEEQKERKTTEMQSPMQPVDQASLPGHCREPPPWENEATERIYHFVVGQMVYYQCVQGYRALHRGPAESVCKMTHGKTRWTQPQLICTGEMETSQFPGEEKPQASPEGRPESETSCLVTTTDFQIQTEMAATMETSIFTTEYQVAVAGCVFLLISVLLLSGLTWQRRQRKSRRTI
T4 sequence (looked up) 2: T2 sequence (looked up)
T4 sequence (looked up) 3: T3 sequence (looked up)

[5] = target: T5, CD25 (TAC), the α chain of IL-2 receptor (UniProt P01589 22-272, limits assumed); experiment: as above
T5 construct: whole, on cells; also called IL-2Rα; α subunit chain
T5 sequence (looked up): T4 sequence (looked up) 1

B1: mAb2-3 (isotype not stated for the experiment) (antibody, V domains shown)
VH: QVQLVQSGAEVKKPGASVKVSCKASGYTFASAWMHWMRQAPGQGLEWIGWINPGNVNTKYNEKFKGRATLTVDTSTNTAYMELSSLRSEDTAVYYCARSTYYRPLDYWGQGTLVTVSS
VL: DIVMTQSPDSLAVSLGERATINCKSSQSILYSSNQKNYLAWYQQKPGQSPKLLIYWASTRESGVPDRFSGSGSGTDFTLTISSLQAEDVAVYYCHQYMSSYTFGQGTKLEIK
Q: What does the source list for B1?
A: binding result [1]: binds; binding result [2]: no binding; binding result [3]: no binding; binding result [4]: no binding; binding result [5]: no binding
